pKd: −log10 of the molar value.
Experiments:
HLA-B*15:17 = assay: IEDB peptide-MHC binding, purified MHC/direct/fluorescence; filed as Kd, often an IC50 or EC50 that approximates it; ≥ and ≤ were set here for values at or beyond the usual limits of such assays
HLA-B*58:01 = assay: as above
HLA-B*57:01 = assay: as above
HLA-A*02:01 [1] = assay: IEDB peptide-MHC binding, purified MHC/competitive/radioactivity; filed as Kd, often an IC50 or EC50 that approximates it; ≥ and ≤ were set here for values at or beyond the usual limits of such assays
HLA-A*02:17 = assay: as above
HLA-A*68:02 = assay: as above
HLA-A*02:03 = assay: as above
HLA-A*02:06 = assay: as above
HLA-B*08:01 = assay: IEDB peptide-MHC binding, purified MHC/direct/fluorescence; filed as Kd, often an IC50 or EC50 that approximates it; ≥ and ≤ were set here for values at or beyond the usual limits of such assays
HLA-A*69:01 = assay: as above; conditions: source organism: Mycobacterium tuberculosis
HLA-B*07:02 = assay: as above; conditions: source organism: Mycobacterium tuberculosis str. Haarlem
HLA-B*08:02 = assay: as above
HLA-A*01:01 = assay: IEDB peptide-MHC binding, purified MHC/competitive/radioactivity; filed as Kd, often an IC50 or EC50 that approximates it; ≥ and ≤ were set here for values at or beyond the usual limits of such assays; conditions: source organism: Dengue virus 1 Brazil/97-11/1997
HLA-A*02:01 [2] = assay: IEDB peptide-MHC binding, purified MHC/competitive/fluorescence; filed as Kd, often an IC50 or EC50 that approximates it; ≥ and ≤ were set here for values at or beyond the usual limits of such assays; conditions: source organism: Orthonairovirus haemorrhagiae
HLA-B*35:01 = assay: IEDB peptide-MHC binding, purified MHC/competitive/radioactivity; filed as Kd, often an IC50 or EC50 that approximates it; ≥ and ≤ were set here for values at or beyond the usual limits of such assays; conditions: source organism: Dengue virus 3 Singapore/8120/1995
HLA-A*32:01 = assay: as above; conditions: source organism: Dengue virus 3 Singapore/8120/1995
HLA-B*18:01 = assay: as above; conditions: source organism: Mammarenavirus machupoense
HLA-B*45:01 = assay: as above; conditions: source organism: Mammarenavirus machupoense
HLA-B*40:01 = assay: as above; conditions: source organism: Mammarenavirus machupoense
HLA-B*40:02 = assay: as above; conditions: source organism: Mammarenavirus machupoense
HLA-B*44:03 = assay: as above; conditions: source organism: Mammarenavirus machupoense
HLA-B*44:02 = assay: as above; conditions: source organism: Mammarenavirus machupoense
[3] = source organism: Camelpox virus M-96
[4] = source organism: Dengue virus 1 Singapore/S275/1990
[5] = source organism: Giardia lamblia ATCC 50803
[6] = source organism: Mycobacterium tuberculosis str. Haarlem
[7] = source organism: Dengue virus 1 Brazil/97-11/1997
[8] = source organism: Orthonairovirus haemorrhagiae
[9] = source organism: Dengue virus 3 China/80-2/1980

KLIEGTNIW was tested, and the pKd (HLA-B*15:17; [3]) was 7.17, the pKd (HLA-B*58:01; [3]) was 8.11 and the pKd (HLA-B*57:01; [3]) was 7.15.
KTMAMVLSIV was tested, and the pKd (HLA-A*02:01 [1]; [4]) was 7.58, the pKd (HLA-A*02:17; [4]) was 5.54 and the pKd (HLA-A*68:02; [4]) was 7.28. It also gave a pKd (HLA-A*02:03; [4]) of 8.93 and a pKd (HLA-A*02:06; [4]) of 8.71.
With LASSSYEQF the pKd (HLA-B*15:17; [5]) was 7.66, the pKd (HLA-B*58:01; [5]) was 7.44 and the pKd (HLA-B*57:01; [5]) was 6.72.
Sequence LPAQLTATA has a pKd (HLA-B*08:01; [6]) of at most 4.70, a pKd (HLA-A*69:01) of 6.74 and a pKd (HLA-B*07:02) of 6.36. The pKd (HLA-B*08:02; [6]) was at most 4.70.
In the case of LTAAVLMLV, the pKd (HLA-A*01:01) was 4.75, the pKd (HLA-A*02:01 [1]; [4]) was 8.94 and the pKd (HLA-A*02:17; [4]) was 6.25. The pKd (HLA-A*68:02; [7]) was 7.95, the pKd (HLA-A*02:03; [7]) was 7.93 and the pKd (HLA-A*02:06; [7]) was 7.97.
In the case of MIRRRNQIL, the pKd (HLA-B*08:01; [8]) was 8.52, the pKd (HLA-B*08:02; [8]) was 6.07 and the pKd (HLA-A*02:01 [2]) was at most 4.70.
Work on MLWMADVPL yielded a pKd (HLA-B*35:01) of 6.18, a pKd (HLA-A*02:01 [1]; [9]) of 8.94 and a pKd (HLA-A*02:17; [9]) of 8.57. It also gave a pKd (HLA-A*32:01) of 7.54.
With PDVGVLFGL the pKd (HLA-B*18:01) was at most 4.36, the pKd (HLA-B*45:01) was at most 4.60 and the pKd (HLA-B*40:01) was at most 4.12. The pKd (HLA-B*40:02) was at most 4.64, the pKd (HLA-B*44:03) was at most 4.11 and the pKd (HLA-B*44:02) was at most 4.11.

Source: the Immune Epitope Database (IEDB)
